Broadly, the Km is the concentration of substrate that gives half-maximal velocity. As usually defined, the kcat is the maximal rate divided by the concentration of active sites. A word on the kcat/Km: it is the turnover number divided by the Michaelis constant.

Substrate in the data set: O=C(CO)CO
It is filed as biochemical, Chromobacterium violaceum. The following applies: DHA as varied substrate; PLP-dependent.

B1: Cv-ωTA (Chromobacterium violaceum ATCC 12472) (protein)
chain: MQKQRTTSQWRELDAAHHLHPFTDTASLNQAGARVMTRGEGVYLWDSEGNKIIDGMAGLWCVNVGYGRKDFAEAARRQMEELPFYNTFFKTTHPAVVELSSLLAEVTPAGFDRVFYTNSGSESVDTMIRMVRRYWDVQGKPEKKTLIGRWNGYHGSTIGGASLGGMKYMHEQGDLPIPGMAHIEQPWWYKHGKDMTPDEFGVVAARWLEEKILEIGADKVAAFVGEPIQGAGGVIVPPATYWPEIERICRKYDVLLVADEVICGFGRTGEWFGHQHFGFQPDLFTAAKGLSSGYLPIGAVFVGKRVAEGLIAGGDFNHGFTYSGHPVCAAVAHANVAALRDEGIVQRVKDDIGPYMQKRWRETFSRFEHVDDVRGVGMVQAFTLVKNKAKRELFPDFGEIGTLCRDIFFRNNLIMRACGDHIVSAPPLVMTRAEVDEMLAVAERCLEEFEQTLKARGLA
In the case of B1, the Km is 15.2 ± 0.11 mM, the kcat is 1.61 ± 0.07 s⁻¹ and the kcat/Km was found to be 100 M⁻¹ s⁻¹.

These data come from article PMC12666128, “Engineering ω-transaminase for efficient dihydroxyacetone transamination in serinol biosynthesis starting from methanol” (Synthetic and Systems Biotechnology, 2025).
